In series [1] the test system is mouse B cells. Briefly: 3H-thymidine incorporation by mouse B cells. In kind it is cell-based. Particulars: 72 hrs culture. As to the method: Mouse B cells were isolated from 2 Balb/C spleens (7 months old) by depleting CD43+ cells using MACS magnetic beads. Purified B cells were cultured in vitro with LPS, anti-IgM or anti-CD40 monoclonal antibodies. Mouse IL-28 or mouse IFNα was added to the cultures and ^3H-thymidine was added at 48 hrs. and ^3H-thymidine incorporation was measured after 72 hrs. culture.
On the technique in general: Uptake of a labelled nucleoside into DNA is a usual measure of proliferation.

Series [2] deals with 293 HEK cells overexpressing zcytor19. Kind of series: Inhibition of ligand-induced ISRE-luciferase signaling by soluble receptors. In kind it is cell-based, human. Particulars: 10 ng/ml ligand, 10 micrograms/ml soluble receptor, 4-hour; relative to PBS alone.
Series [3] deals with AML-12 cells. Kind of series: ISG induction in the mouse liver cell line AML-12 (real-time PCR). The class given is cell-based. Particulars: AML-12, 20 ng/ml, 48 hour time point; mRNA relative to HPRT gene expression. As to the method:
AML-12 cells were plated in 6-well plates in complete DMEM media at a concentration of 2×10^6 cells/well. […] As a control, cells were either stimulated with mouse IFNα (positive control) or unstimulated (negative). […] RNA was isolated from cell pellets using RNAEasy-kit® (Qiagen, Valencia, Calif.). RNA was treated with DNase (Millipore, Billerica, Mass.) to clean RNA of any contaminating DNA. cDNA was generated using Perkin-Elmer RT mix. ISG gene induction was evaluated by real-time PCR using primers and probes specific for mouse OAS, Pkr and Mx1. To obtain quantitative data, HPRT real-time PCR was duplexed with ISG PCR. A standard curve was obtained using known amounts of RNA from IFN-stimulated mouse PBLs. All data are shown as expression relative to internal HPRT expression.
In general terms: In qPCR the cycle at which signal appears reflects the starting amount.

Series [4] has as its system adenoviral vector AdGFP. Kind of series: Adenoviral vector (AdGFP) liver pathology model in C57Bl/6 mice. Particulars: AdGFP-infected C57Bl/6 mice, 50 μg i.p., 7 doses.
For series [5], the system named is ISRE signaling in HepG2 cells. The note with it: 100 ng/ml ligand, 4-hour incubation; RLU over medium alone.

B1: Zcyto24: mouse IL-28A (zcyto24), SEQ ID NO:8 (protein, listed as Mus musculus)
chain: MKPETAGGHMLLLLLPLLLAAVLTRTQADPVPRATRLPVEAKDCHIAQFKSLSPKELQAFKKAKDAIEKRLLEKDLRCSSHLFPRAWDLKQLQVQERPKALQAEVALTLKVWENMTDSALATILGQPLHTLSHIHSQLQTCTQLQATAEPRSPSRRLSRWLHRLQEAQSKETPGCLEASVTSNLFRLLTRDLKCVANGDQCV
With B1, in series [1], the “3H thymidine incorporation by mouse B cells stimulated with anti-CD40 MAb” value is “increased”. Further, the “3H-thymidine incorporation by mouse B cells stimulated with LPS or anti-IgM” value in series [1] (IFNα at 10 ng/ml, mouse IL-28 any concentration tested including 1000 ng/ml) is “did not inhibit”. Besides, in series [2], the “Percent Inhibition of Ligand-induced ISRE Signaling by HuCRF2-4-Fc” value is 82%, the “Percent Inhibition of Ligand-induced ISRE Signaling by Huzcytor19-Fc” value was found to be 90%, the “Percent Inhibition of Ligand-induced ISRE Signaling by Huzcytor19-Fc/huCRF2-4-Fc” value was found to be 47% and the “Percent Inhibition of Ligand-induced ISRE Signaling by Muzcytor19-Ig” value amounted to 89%. In series [3], the Mx1 is listed as 0.08, the OAS was determined as 0.04 and the PkR was 0.02. Moreover, the “liver histology: liver and inflammation scores versus PBS-treated group” value in series [4] was “lower liver and inflammation scores”. Moreover, in series [4] (n=8), the “average serum AST” value is 193 U/L, the relative liver fluorescence stood at 34.5 arbitrary units and the “serum ALT” value was 216 U/L. Besides, the “Fold Induction of Cytokine-dependent ISRE Signaling in HepG2 Cells” value in series [5] was found to be 4.7 fold.

The record behind these values is patent publication US20120114590A1 (priority 2005, published 2012).
